Assay [1] concerns the target CMKLR1 (recombinant, species not given). The assay can be described thus: cell-based or functional assay.
The target is the same in assay [2]. As to the kind of experiment: cell-based or functional assay. This is another data set of the same source.

Non-standard residues stand in square brackets, D forms with d. No end group written: not given here. Tic = O=C(O)[C@@H]1Cc2ccccc2CN1

B1: C16 lipidated stable chemerin 9 analog (peptide)
peptide: [dY]FLP[dS]QF[dA][Tic]S
modifications: also: C16 (palmitic acid) lipid tail, linker and attachment not given here
Regarding B1, in assay [1], the “CMKLR1 canonical Gαi signal transduction, EC50 (BSA) (no wash)” value amounted to 6.4 nM; the “CMKLR1 canonical Gαi signal transduction, EC50 (BSA) (wash × 3)” value is 520 nM; the “CMKLR1 canonical Gαi signal transduction, EC50 (no wash)” value worked out at 2.7 nM; the “CMKLR1 canonical Gαi signal transduction, EC50 (wash × 3)” value turned out to be 18.6 nM. For the same molecule, in assay [2], the “β-Arrestin recruitment, EC50” value was 3.23 nM and the “β-Arrestin recruitment, Max Efficacy (% 10 µM s-Stable chem9)” value amounted to 165%.

B2: C4 lipidated stable chemerin 9 analog (peptide)
peptide: [dY]FLP[dS]QF[dA][Tic]S
modifications: also: C4 lipid tail, linker and attachment not given here
In the case of B2, in assay [1], the “CMKLR1 canonical Gαi signal transduction, EC50 (BSA) (no wash)” value came to 11 nM and the “CMKLR1 canonical Gαi signal transduction, EC50 (no wash)” value was 79.3 nM. In assay [2], the “β-Arrestin recruitment, EC50” value came to 223 nM and the “β-Arrestin recruitment, Max Efficacy (% 10 µM s-Stable chem9)” value was 89.7%.

B3: C14:1 lipidated stable chemerin 9 analog (peptide)
peptide: [dY]FLP[dS]QF[dA][Tic]S
modifications: also: C14:1 lipid tail, linker and attachment not given here
For B3, in assay [1], the “CMKLR1 canonical Gαi signal transduction, EC50 (BSA) (no wash)” value was found to be 26.2 nM; the “CMKLR1 canonical Gαi signal transduction, EC50 (BSA) (wash × 3)” value is 1820 nM; the “CMKLR1 canonical Gαi signal transduction, EC50 (no wash)” value amounted to 9.3 nM; the “CMKLR1 canonical Gαi signal transduction, EC50 (wash × 3)” value stood at 100 nM. Moreover, in assay [2], the “β-Arrestin recruitment, EC50” value came out at 51.9 nM and the “β-Arrestin recruitment, Max Efficacy (% 10 µM s-Stable chem9)” value amounted to 124%.

B4: Cholesterol lipidated stable chemerin 9 analog (peptide)
peptide: [dY]FLP[dS]QF[dA][Tic]S
modifications: also: cholesterol lipid tail, linker and attachment not given here
Take B4: in assay [1], the “CMKLR1 canonical Gαi signal transduction, EC50 (BSA) (no wash)” value amounted to 108 nM; the “CMKLR1 canonical Gαi signal transduction, EC50 (BSA) (wash × 3)” value amounted to 13500 nM; the “CMKLR1 canonical Gαi signal transduction, EC50 (no wash)” value worked out at 84.5 nM; the “CMKLR1 canonical Gαi signal transduction, EC50 (wash × 3)” value turned out to be 445 nM. Also, in assay [2], the “β-Arrestin recruitment, EC50” value was found to be 131 nM and the “β-Arrestin recruitment, Max Efficacy (% 10 µM s-Stable chem9)” value amounted to 149%.

B5: C16:1 lipidated stable chemerin 9 analog (peptide)
peptide: [dY]FLP[dS]QF[dA][Tic]S
modifications: also: C16:1 lipid tail, linker and attachment not given here
For the molecule B5, in assay [1], the “CMKLR1 canonical Gαi signal transduction, EC50 (BSA) (no wash)” value turned out to be 29.5 nM; the “CMKLR1 canonical Gαi signal transduction, EC50 (BSA) (wash × 3)” value was 3140 nM; the “CMKLR1 canonical Gαi signal transduction, EC50 (no wash)” value is 12 nM; the “CMKLR1 canonical Gαi signal transduction, EC50 (wash × 3)” value amounted to 42.2 nM. In addition, in assay [2], the “β-Arrestin recruitment, EC50” value came out at 80.8 nM and the “β-Arrestin recruitment, Max Efficacy (% 10 µM s-Stable chem9)” value came to 154%.

B6: C18:3 lipidated stable chemerin 9 analog (peptide)
peptide: [dY]FLP[dS]QF[dA][Tic]S
modifications: also: C18:3 (linolenic acid) lipid tail, linker and attachment not given here
Turning to B6, in assay [1], the “CMKLR1 canonical Gαi signal transduction, EC50 (BSA) (no wash)” value worked out at 73.3 nM; the “CMKLR1 canonical Gαi signal transduction, EC50 (no wash)” value came to 45.7 nM; the “CMKLR1 canonical Gαi signal transduction, EC50 (wash × 3)” value worked out at 350 nM. Also, in assay [2], the “β-Arrestin recruitment, EC50” value was found to be 181 nM and the “β-Arrestin recruitment, Max Efficacy (% 10 µM s-Stable chem9)” value came to 110%.

B7: s-Stable Chem (soluble stable chemerin peptide) (peptide)
peptide: [dY]FLP[dS]QF[dA][Tic]S
Take B7: in assay [1], the “CMKLR1 canonical Gαi signal transduction, EC50 (BSA) (no wash)” value was 5.1 nM and the “CMKLR1 canonical Gαi signal transduction, EC50 (no wash)” value was found to be 35.2 nM. Moreover, in assay [2], the “β-Arrestin recruitment, EC50” value was 31.9 nM and the “β-Arrestin recruitment, Max Efficacy (% 10 µM s-Stable chem9)” value was found to be 100%.

B8: C10 lipidated stable chemerin 9 analog (peptide)
peptide: [dY]FLP[dS]QF[dA][Tic]S
modifications: also: C10 lipid tail, linker and attachment not given here
Take B8: in assay [1], the “CMKLR1 canonical Gαi signal transduction, EC50 (BSA) (no wash)” value amounted to 17.8 nM and the “CMKLR1 canonical Gαi signal transduction, EC50 (no wash)” value came out at 17.8 nM. In addition, in assay [2], the “β-Arrestin recruitment, EC50” value was found to be 23.1 nM and the “β-Arrestin recruitment, Max Efficacy (% 10 µM s-Stable chem9)” value was 98.3%.

B9: C18:1 lipidated stable chemerin 9 analog (peptide)
peptide: [dY]FLP[dS]QF[dA][Tic]S
modifications: also: C18:1 lipid tail (which C18:1 acid not given here), linker and attachment not given here
On to B9, for which, in assay [1], the “CMKLR1 canonical Gαi signal transduction, EC50 (BSA) (no wash)” value is 12.7 nM; the “CMKLR1 canonical Gαi signal transduction, EC50 (BSA) (wash × 3)” value was 2860 nM; the “CMKLR1 canonical Gαi signal transduction, EC50 (no wash)” value came out at 4.7 nM; the “CMKLR1 canonical Gαi signal transduction, EC50 (wash × 3)” value is 26.4 nM. Moreover, in assay [2], the “β-Arrestin recruitment, EC50” value was 17.4 nM and the “β-Arrestin recruitment, Max Efficacy (% 10 µM s-Stable chem9)” value is 160%.

Values taken from US20240325486A1 (TUFTS MEDICAL CENTER, published 2024).
